From patent US20240309109A1

Molecular target: human CD38 on cells (human) (UniProt P28907)
Experiment: FACS Scatchard, IgG1 on Raji cells

Chimeric OKT10 (antibody)
Kd: 8.28 nM
